Laboratory results reported in article PMC8960874 (2022).

B1: Clone 6 mAb (human IgG1 with mouse variable regions) (antibody, V domains shown)
VH: QVQLQQSAAELARPGASVKMSCKASGYTFTSYTMHWVKQRPGQGLEWIGYINPTSGYTEYNQNFKDKTTLTADKSSSTAYMQLNSLTSEDSAVYYCAREGHRVGPAYWGQGTLVTVSA
VL: not shown
B2: Clone 2 mAb (human IgG1 with mouse variable regions) (antibody, V domains shown)
VH: EVQLQQSGPELVKPGASVKISCKASGYSFTGYSMNWMKQSPEKSLEWIGEINPSTGGTTDNQKFKAKATLTVDKSSSTAYMQLKSLTSEDSAVYYCARSRGDYWGQGTSVTVSS
VL: DIVLTQSPASLAVSLGQRATISCRASESVEYYGTSLMQWYQQKPGQPPKVLIYAASNVESGVPARFSGSGSGTDFSLNIHPVEEDDIAMYFCQQSRKVPWTFGGGTKLEIK

What was measured:
[1] = biological target: T1, SARS-CoV-2 spike receptor binding domain (RBD) protein with a C-terminal hexahistidine tag (SARS-CoV-2, UniProt P0DTC2 319-541); test: BLI
[2] = biological target: T1, SARS-CoV-2 spike receptor binding …; test: BLI; remark: listed apart in the source

| Binder | Kd [1] | koff [2] |
| --- | --- | --- |
| B1 | 1.89 pM | 3.65e-07 s⁻¹ |
| B2 | 1.58 pM | 1.49e-07 s⁻¹ |
